# Results: PMC9163697, “Mechanistic insights into the activation of the IKK kinase complex by the Kaposi’s sarcoma herpes virus oncoprotein vFLIP” (The Journal of Biological Chemistry, 2022)
# B1: IKKγ(150–272) (domain or fragment, UniProt Q9Y6K9 150-272, looked up)
# chain: LGELQESQSRLEAATKECQALEGRARAASEQARQLESEREALQQQHSVQVDQLRMQGQSVEAALRMERQAASEEKRKLAQLQVAYHQLFQEYDNHIKSSVVGSERKRGMQLEDLKQQLQQAEE
# notes: IKKγ (Nemo), regulatory subunit of the IKK kinase complex, residues 150-272; also called Nemo; WT IKKγ
# Legend:
# WT vFLIP(1–177) [1] = target: T1, WT vFLIP(1–177) (Kaposi's sarcoma-associated herpes …, UniProt Q76RF1 1-177); experiment: native MS; proteins and complexes exchanged into 200 mM ammonium acetate pH 8.5, 3.2 μM, nanoelectrospray, Synapt QToF; collision-induced dissociation of selected species; details: both partners purified
# T1 construct: vFLIP of the Kaposi's sarcoma-associated herpes virus (KSHV), residues 1-177; also called recombinant vFLIP; source: mutants said to be expressed in E. coli
# [2] = target: the molecule itself; experiment: as above
# WT vFLIP(1–177) [3] = target: T1, WT vFLIP(1–177); experiment: native gel or EMSA; blue native gel (4–20%), 8–10 μg of purified complexes of IKKγ(150–272) with vFLIP or complexes assembled from the concentrated proteins; bands excised and analysed by SDS-PAGE; details: both partners purified
binder,measurement,setting,value
B1,stoichiometry N,WT vFLIP(1–177) [1],0.5 vFLIP per IKKγ
same,binding result,[2],binds
same,stoichiometry N,WT vFLIP(1–177) [3],1 vFLIP per IKKγ
